Laboratory results from paper PMC8634136 (The EMBO Journal, 2021).

B1: MCM5 (natural protein, human)
chain: MSGFDDPGIFYSDSFGGDAQADEGQARKSQLQRRFKEFLRQYRVGTDRTGFTFKYRDELKRHYNLGEYWIEVEMEDLASFDEDLADYLYKQPAEHLQLLEEAAKEVADEVTRPRPSGEEVLQDIQVMLKSDASPSSIRSLKSDMMSHLVKIPGIIIAASAVRAKATRISIQCRSCRNTLTNIAMRPGLEGYALPRKCNTDQAGRPKCPLDPYFIMPDKCKCVDFQTLKLQELPDAVPHGEMPRHMQLYCDRYLCDKVVPGNRVTIMGIYSIKKFGLTTSRGRDRVGVGIRSSYIRVLGIQVDTDGSGRSFAGAVSPQEEEEFRRLAALPNVYEVISKSIAPSIFGGTDMKKAIACLLFGGSRKRLPDGLTRRGDINLLMLGDPGTAKSQLLKFVEKCSPIGVYTSGKGSSAAGLTASVMRDPSSRNFIMEGGAMVLADGGVVCIDEFDKMREDDRVAIHEAMEQQTISIAKAGITTTLNSRCSVLAAANSVFGRWDETKGEDNIDFMPTILSRFDMIFIVKDEHNEERDVMLAKHVITLHVSALTQTQAVEGEIDLAKLKKFIAYCRVKCGPRLSAEAAEKLKNRYIIMRSGARQHERDSDRRSSIPITVRQLEAIVRIAEALSKMKLQPFATEADVEEALRLFQVSTLDAALSGTLSGVEGFTSQEDQEMLSRIEKQLKRRFAIGSQVSEHSIIKDFTKQKYPEHAIHKVLQLMLRRGEIQHRMQRKVLYRLK
notes: MCM5, human; Stood in the structure as a subunit of m1; source: Hi5 insect cells, purified as a subunit of hsCMG
B2: TIMELESS‐TIPIN heterodimer (complex, human)
chain 1: MDLHMMNCELLATCSALGYLEGDTYHKEPDCLESVKDLIRYLRHEDETRDVRQQLGAAQILQSDLLPILTQHHQDKPLFDAVIRLMVNLTQPALLCFGNLPKEPSFRHHFLQVLTYLQAYKEAFASEKAFGVLSETLYELLQLGWEERQEEDNLLIERILLLVRNILHVPADLDQEKKIDDDASAHDQLLWAIHLSGLDDLLLFLASSSAEEQWSLHVLEIVSLMFRDQNPEQLAGVGQGRLAQERSADFAELEVLRQREMAEKKTRALQRGNRHSRFGGSYIVQGLKSIGERDLIFHKGLHNLRNYSSDLGKQPKKVPKRRQAARELSIQRRSALNVRLFLRDFCSEFLENCYNRLMGSVKDHLLREKAQQHDETYYMWALAFFMAFNRAASFRPGLVSETLSVRTFHFIEQNLTNYYEMMLTDRKEAASWARRMHLALKAYQELLATVNEMDISPDEAVRESSRIIKNNIFYVMEYRELFLALFRKFDERCQPRSFLRDLVETTHLFLKMLERFCRSRGNLVVQNKQKKRRKKKKKVLDQAIVSGNVPSSPEEVEAVWPALAEQLQCCAQNSELSMDSVVPFDAASEVPVEEQRAEAMVRIQDCLLAGQAPQALTLLRSAREVWPEGDVFGSQDISPEEEIQLLKQILSAPLPRQQGPEERGAEEEEEEEEEEEEELQVVQVSEKEFNFLDYLKRFACSTVVRAYVLLLRSYQQNSAHTNHCIVKMLHRLAHDLKMEALLFQLSVFCLFNRLLSDPAAGAYKELVTFAKYILGKFFALAAVNQKAFVELLFWKNTAVVREMTEGYGSLDDRSSSRRAPTWSPEEEAHLRELYLANKDVEGQDVVEAILAHLNTVPRTRKQIIHHLVQMGLADSVKDFQRKGTHIVLWTGDQELELQRLFEEFRDSDDVLGHIMKNITAKRSRARIVDKLLALGLVAERRELYKKRQKKLASSILPNGAESLKDFCQEDLEEEENLPEEDSEEEEEGGSEAEQVQGSLVLSNENLGQSLHQEGFSIPLLWLQNCLIRAADDREEDGCSQAVPLVPLTEENEEAMENEQFQQLLRKLGVRPPASGQETFWRIPAKLSPTQLRRAAASLSQPEEEQKLQPELQPKVPGEQGSDEEHCKEHRAQALRALLLAHKKKAGLASPEEEDAVGKEPLKAAPKKRQLLDSDEEQEEDEGRNRAPELGAPGIQKKKRYQIEDDEDD
chain 2: MLEPQENGVIDLPDYEHVEDETFPPFPPPASPERQDGEGTEPDEESGNGAPVRVPPKRTVKRNIPKLDAQRLISERGLPALRHVFDKAKFKGKGHEAEDLKMLIRHMEHWAHRLFPKLQFEDFIDRVEYLGSKKEVQTCLKRIRLDLPILHEDFVSNNDEVAENNEHDVTSTELDPFLTNLSESEMFASELSRSLTEEQQQRIERNKQLALERRQAKLLSNSQTLGNDMLMNTPRAHTVEEVNTDEDQKEESNGLNEDILDNPCNDAIANTLNEEETLLDQSFKNVQQQLDATSRNITEAR
notes: TIPIN, human; no cleavage is described in the purification; source: Hi5 insect cells (baculovirus), purified (Strep-Tactin XT, HiTrap Q, Superdex 200)
B3: PSF2 (natural protein, human)
chain: MDAAEVEFLAEKELVTIIPNFSLDKIYLIGGDLGPFNPGLPVEVPLWLAINLKQRQKCRLLPPEWMDVEKLEKMRDHERKEETFTPMPSPYYMELTKLLLNHASDNIPKADEIRTLVKDMWDTRIAKLRVSADSFVRQQEAHAKLDNLTLMEINTSGTFLTQALNHMYKLRTNLQPLESTQSQDF
notes: PSF2 (GINS subunit), human; Stood in the structure as a subunit of m1; also called PSF2 subunit of GINS; source: Hi5 insect cells, purified as a subunit of hsCMG
B4: CDC45 (natural protein, human, UniProt O75419 1-566, looked up)
chain: MFVSDFRKEFYEVVQSQRVLLFVASDVDALCACKILQALFQCDHVQYTLVPVSGWQELETAFLEHKEQFHYFILINCGANVDLLDILQPDEDTIFFVCDTHRPVNVVNVYNDTQIKLLIKQDDDLEVPAYEDIFRDEEEDEEHSGNDSDGSEPSEKRTRLEEEIVEQTMRRRQRREWEARRRDILFDYEQYEYHGTSSAMVMFELAWMLSKDLNDMLWWAIVGLTDQWVQDKITQMKYVTDVGVLQRHVSRHNHRNEDEENTLSVDCTRISFEYDLRLVLYQHWSLHDSLCNTSYTAARFKLWSVHGQKRLQEFLADMGLPLKQVKQKFQAMDISLKENLREMIEESANKFGMKDMRVQTFSIHFGFKHKFLASDVVFATMSLMESPEKDGSGTDHFIQALDSLSRSNLDKLYHGLELAKKQLRATQQTIASCLCTNLVISQGPFLYCSLMEGTPDVMLFSRPASLSLLSKHLLKSFVCSTKNRRCKLLPLVMAAPLSMEHGTVTVVGIPPETDSSDRKNFFGRAFEKAAESTSSRMLHNHFDLSVIELKAEDRSKFLDALISLLS
notes: CDC45, human; Stood in the structure as a subunit of m1; source: Hi5 insect cells, purified as a subunit of hsCMG

Key:
Conditions in all cases: both partners purified
[1] = target: T1, POLE1 (human, UniProt Q07864 1-2286); experiment: cryo-EM structure; replisome reconstituted on fork DNA with AMP-PNP, isolated on a glycerol gradient with glutaraldehyde and BS3; 3.2 Å overall; a sample without CLASPIN solved at 3.4 Å
T1 construct: POLE1, catalytic subunit of Pol ε, human; Stood in the structure as a subunit of m2; residues 1,371-2,280 modelled; also called POLE1 catalytic subunit; POLE1^nonCat (the modelled C-terminal non-catalytic domain); source: Hi5 insect cells, purified as a subunit of Pol ε

[2] = target: T2, human CDC45‐MCM‐GINS (CMG) helicase (human, UniProt P49736 1-904; P25205 1-808; P33991 1-863; P33992 1-734; Q14566 1-821; P33993 …); experiment: co-sedimentation; native glycerol gradient without cross-linker (40 mM HEPES-NaOH pH 7.5, 150 mM NaOAc, 0.5 mM TCEP, 500 µM AMP-PNP, 3 mM Mg(OAc)2), 200,000 g, 4°C, 2 h; 100 nM CMG pre-incubated with fork DNA, 1.5-fold molar excess of the other proteins; fractions on silver-stained SDS-PAGE
T2 construct: MCM2, human; MCM3, human; the construct lacks the 45 additional N-terminal amino acids of the longer isoform used in PDB 6XTX; MCM4, human; MCM5, human; MCM6, human; MCM7, human; CDC45, human; PSF1 (GINS subunit), human; PSF2 (GINS subunit), human; PSF3 (GINS subunit), human; SLD5 (GINS subunit), human; also called hsCMG; source: Hi5 insect cells co-infected with baculoviruses for MCM2-7, GINS …

[3] = target: T3, AND‐1 (human, UniProt O75717 1-1129); experiment: cryo-EM structure; replisome reconstituted on fork DNA with AMP-PNP, isolated on a glycerol gradient with glutaraldehyde and BS3; 3.2 Å overall; a sample without CLASPIN solved at 3.4 Å
T3 construct: AND-1, human; Only the trimer of SepB domains is ordered in the map; source: Hi5 insect cells (baculovirus), purified (Flag M2, MonoQ, Superdex 200)
T3 sequence: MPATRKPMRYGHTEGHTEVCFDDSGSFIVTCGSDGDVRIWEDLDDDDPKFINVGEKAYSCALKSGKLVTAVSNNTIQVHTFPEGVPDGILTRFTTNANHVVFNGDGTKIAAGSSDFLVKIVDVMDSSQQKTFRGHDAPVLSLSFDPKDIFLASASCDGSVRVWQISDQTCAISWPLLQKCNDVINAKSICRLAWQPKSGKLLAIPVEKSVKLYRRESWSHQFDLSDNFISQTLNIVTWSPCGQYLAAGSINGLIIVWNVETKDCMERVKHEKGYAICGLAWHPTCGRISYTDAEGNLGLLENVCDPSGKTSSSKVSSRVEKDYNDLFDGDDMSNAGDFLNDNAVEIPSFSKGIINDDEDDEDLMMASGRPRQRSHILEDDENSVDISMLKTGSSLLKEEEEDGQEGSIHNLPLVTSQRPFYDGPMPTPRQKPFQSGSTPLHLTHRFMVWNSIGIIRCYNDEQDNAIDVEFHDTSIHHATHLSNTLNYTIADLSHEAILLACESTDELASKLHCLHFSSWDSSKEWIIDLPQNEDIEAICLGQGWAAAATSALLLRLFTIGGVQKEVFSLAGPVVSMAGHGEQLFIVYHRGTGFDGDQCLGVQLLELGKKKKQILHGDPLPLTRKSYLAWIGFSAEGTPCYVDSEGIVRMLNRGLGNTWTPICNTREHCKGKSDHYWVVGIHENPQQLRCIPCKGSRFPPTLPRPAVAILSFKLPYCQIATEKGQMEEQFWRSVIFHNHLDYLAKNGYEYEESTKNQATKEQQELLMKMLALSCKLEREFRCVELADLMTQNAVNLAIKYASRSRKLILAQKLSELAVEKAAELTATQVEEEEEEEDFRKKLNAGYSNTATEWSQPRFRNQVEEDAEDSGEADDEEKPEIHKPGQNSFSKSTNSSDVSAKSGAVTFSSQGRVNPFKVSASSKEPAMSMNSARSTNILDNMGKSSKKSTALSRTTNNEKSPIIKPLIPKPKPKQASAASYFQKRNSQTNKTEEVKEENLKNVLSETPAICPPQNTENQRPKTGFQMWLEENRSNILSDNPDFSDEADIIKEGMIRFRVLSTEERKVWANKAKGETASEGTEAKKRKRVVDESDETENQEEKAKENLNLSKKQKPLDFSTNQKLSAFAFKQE

T1 sequence (Q07864 whole entry, the tested form may be a part): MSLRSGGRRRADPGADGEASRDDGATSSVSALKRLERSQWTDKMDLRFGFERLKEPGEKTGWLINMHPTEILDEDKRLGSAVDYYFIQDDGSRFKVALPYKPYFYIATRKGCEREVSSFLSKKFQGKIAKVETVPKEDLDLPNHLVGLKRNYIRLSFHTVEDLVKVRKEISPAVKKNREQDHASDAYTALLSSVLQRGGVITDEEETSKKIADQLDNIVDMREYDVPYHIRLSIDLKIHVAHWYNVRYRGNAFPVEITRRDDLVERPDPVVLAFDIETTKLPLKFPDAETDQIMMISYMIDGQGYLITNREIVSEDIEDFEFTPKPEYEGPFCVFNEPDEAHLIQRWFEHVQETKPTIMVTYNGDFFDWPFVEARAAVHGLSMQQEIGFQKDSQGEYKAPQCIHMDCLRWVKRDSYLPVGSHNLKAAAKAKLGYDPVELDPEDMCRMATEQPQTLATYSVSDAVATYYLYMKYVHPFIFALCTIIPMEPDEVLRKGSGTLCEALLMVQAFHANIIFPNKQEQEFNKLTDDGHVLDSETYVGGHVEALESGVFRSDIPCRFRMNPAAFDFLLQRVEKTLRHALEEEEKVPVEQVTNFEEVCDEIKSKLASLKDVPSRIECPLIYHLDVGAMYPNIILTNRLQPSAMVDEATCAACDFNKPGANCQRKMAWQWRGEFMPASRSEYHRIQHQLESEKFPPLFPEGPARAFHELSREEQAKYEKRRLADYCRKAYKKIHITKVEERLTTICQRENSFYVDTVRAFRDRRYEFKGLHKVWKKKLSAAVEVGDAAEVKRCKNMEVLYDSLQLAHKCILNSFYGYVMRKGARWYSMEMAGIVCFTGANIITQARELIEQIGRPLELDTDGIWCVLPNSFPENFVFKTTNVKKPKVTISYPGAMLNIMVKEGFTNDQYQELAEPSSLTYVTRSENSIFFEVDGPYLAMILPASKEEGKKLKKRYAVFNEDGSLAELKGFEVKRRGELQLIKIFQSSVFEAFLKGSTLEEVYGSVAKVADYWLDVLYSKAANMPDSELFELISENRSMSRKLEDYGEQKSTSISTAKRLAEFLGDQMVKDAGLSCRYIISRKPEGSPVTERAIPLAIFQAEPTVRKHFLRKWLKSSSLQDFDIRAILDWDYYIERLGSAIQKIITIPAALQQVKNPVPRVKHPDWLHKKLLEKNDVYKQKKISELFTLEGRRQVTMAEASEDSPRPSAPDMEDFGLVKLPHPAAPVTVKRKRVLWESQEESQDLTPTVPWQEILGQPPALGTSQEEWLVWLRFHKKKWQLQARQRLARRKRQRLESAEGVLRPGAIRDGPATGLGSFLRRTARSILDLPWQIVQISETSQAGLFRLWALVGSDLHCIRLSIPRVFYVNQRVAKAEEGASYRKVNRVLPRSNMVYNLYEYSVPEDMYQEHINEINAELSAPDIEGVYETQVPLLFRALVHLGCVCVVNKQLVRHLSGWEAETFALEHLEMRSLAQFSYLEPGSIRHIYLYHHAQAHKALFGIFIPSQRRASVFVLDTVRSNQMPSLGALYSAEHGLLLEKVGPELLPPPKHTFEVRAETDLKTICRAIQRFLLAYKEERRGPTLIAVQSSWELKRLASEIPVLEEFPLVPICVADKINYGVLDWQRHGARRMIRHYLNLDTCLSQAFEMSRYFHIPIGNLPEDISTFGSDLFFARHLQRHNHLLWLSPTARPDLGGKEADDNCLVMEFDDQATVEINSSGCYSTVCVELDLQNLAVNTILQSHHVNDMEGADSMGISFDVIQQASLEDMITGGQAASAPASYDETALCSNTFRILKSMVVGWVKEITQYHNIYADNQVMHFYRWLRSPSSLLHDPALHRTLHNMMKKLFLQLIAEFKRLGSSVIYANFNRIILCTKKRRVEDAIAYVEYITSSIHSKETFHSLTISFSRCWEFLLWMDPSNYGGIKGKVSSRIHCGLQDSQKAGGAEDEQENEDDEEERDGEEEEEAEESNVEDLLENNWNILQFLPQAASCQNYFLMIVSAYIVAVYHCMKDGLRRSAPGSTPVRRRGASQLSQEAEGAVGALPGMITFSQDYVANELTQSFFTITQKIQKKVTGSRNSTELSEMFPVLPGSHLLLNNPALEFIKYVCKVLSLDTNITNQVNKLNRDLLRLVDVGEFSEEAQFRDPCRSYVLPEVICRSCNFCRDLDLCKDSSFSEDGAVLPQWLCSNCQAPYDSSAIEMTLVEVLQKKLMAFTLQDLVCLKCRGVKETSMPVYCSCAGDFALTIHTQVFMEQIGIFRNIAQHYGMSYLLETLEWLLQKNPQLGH

Binder | binding result [1] | binding result [2] | binding result [3]
B1 | binds | – | –
B2 | – | binds | –
B3 | – | – | binds
B4 | binds | – | binds
